T1: human MICA endogenously expressed on the surface of HCT116 colon carcinoma cells (human, UniProt Q29983 24-383)
T1 sequence (looked up): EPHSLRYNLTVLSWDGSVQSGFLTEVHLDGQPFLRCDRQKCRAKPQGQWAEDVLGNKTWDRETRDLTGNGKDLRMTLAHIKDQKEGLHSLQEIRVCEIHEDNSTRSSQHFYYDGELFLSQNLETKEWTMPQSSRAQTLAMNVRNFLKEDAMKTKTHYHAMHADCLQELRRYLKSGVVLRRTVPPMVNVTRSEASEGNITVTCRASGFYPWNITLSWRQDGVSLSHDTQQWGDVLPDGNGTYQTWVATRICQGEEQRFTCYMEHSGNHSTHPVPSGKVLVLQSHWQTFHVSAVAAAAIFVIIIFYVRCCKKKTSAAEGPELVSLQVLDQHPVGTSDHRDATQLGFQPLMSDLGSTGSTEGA


Molecular target: T1, human MICA endogenously expressed on …
Experiment: cell-based or functional assay

Binder	EC50 (also referred to as IC50) of cytotoxicity towards HCT116 cells, cell confluence over one week (IncuCyte)
chimeric antibody 19E9 (human IgG1 constant regions) conjugated to a PBD dimer, DAR about 2 (antibody, V domains shown, PBD dimer via NH2-PEG-N3 / DBCO-val-ala linker on Q295 (Kabat EU numbering) of each heavy chain constant region) VH: DVQLQESGPGLVKPSQSLSLTCTVTGYSITSDYAWNWIRQFPGNKLEWMGFVSYSGTTKYNPSLKSRISITRDTSENQFFLQLNSVTSEDTATYYCARGYGFDYWGQGTTLTVSS VL: EIVLTQSPTTMAASPGEKITITCSATSSISSIYFHWYQQRPGFSPKLLIYRTSNLASGVPARFSGSGSGTSYSLTIGTMEAEDVATYYCQQGTTIPFTFGSGTKLEIK	0.475 ng/mL
chimeric antibody 18E8 (human IgG1 constant regions) conjugated to a PBD dimer, DAR about 2 (antibody, V domains shown, PBD dimer via NH2-PEG-N3 / DBCO-val-ala linker on Q295 (Kabat EU numbering) of each heavy chain constant region) VH: DVQLQESGPDLVNPSQSLSLICTVTGYSITSDYSWHWIRQFPGNKLEWMGNIHYSGRINYNPSLRSRISITRDTSKNQFFLQLISVTTEDTATYYCATRRTFGNFEDYWGQGTTLTVSS VL: QIVLSQSPATLSVSPGEKVTMTCRSSSSVNYMHWYQQKPGSSPKPWIYATSTLASGVPARFSGSGSGTSYSLTISRVEAEDAATYYCQQWSSNPLTFGAGTKLELK	3.77 ng/mL
chimeric antibody 6E4 (human IgG1 constant regions) conjugated to a PBD dimer, DAR about 2 (antibody, V domains shown, PBD dimer via NH2-PEG-N3 / DBCO-val-ala linker on Q295 (Kabat EU numbering) of each heavy chain constant region) VH: EVQLVESGGALVKPGGSLKLSCAASGFTFSYYAMSWVRQTPEKRLEWVATISRGGNYIYYTDSVKGRFTISRDNAKNTLYLQMTSLRSEDTAMFYCASISDYDGAWLAYWGQGTLVTV VL: DVLMTQTPLSLPVSLGDQASISCRSSQSIIHTNGNTYLEWYLQKPGQSPKLLIYKISNRFSGVPDRFSGSGSGTDFTLKISRVEAEDLGVYYCFQGSHVPWTFGGGTKLEIK	2.25 ng/mL
chimeric antibody 9C10 (human IgG1 constant regions) conjugated to a PBD dimer, DAR about 2 (antibody, V domains shown, PBD dimer via NH2-PEG-N3 / DBCO-val-ala linker on Q295 (Kabat EU numbering) of each heavy chain constant region) VH: QVQLQQPGAELVRPGTSVNLSCKASGYSFTRYWMNWVKQRPGQGLEWIGMIHPSDSETRLNQKFKDKATLTVDKSSSTAYMQLSSPTSEDSAVYYCGYGNFFYVMDYWGQGTSVTVSS VL: DILLTQSPAILSVSPGERVSFSCRASQSIGTSIHWYQQRTNGSPRLLIKFASESISGIPSRFSGSGSGTDFTLNINSVESEDIADYYCQQSNFWPFTFGSGTKLEVK	7.77 ng/mL

Source: patent US20200023071A1 (INNATE PHARMA, published 2020)
